One molecule from patent publication US11827911B2, “Chimeric bacteriophage lysin with activity against Staphylococci bacteria” (priority 2008, dated 2023) can be followed below.

Series [1] relates to S. aureus. Put plainly: Binding of FITC-labeled phiNM3 CWT to bacterial cells, fluorescence microscopy. Also noted: species or system Staphylococcus aureus. To be noted: FITC-labeled protein 50 μg, 10 minutes; single or mixed populations. The source says: (§1) Most preferably, the binding molecule is a soluble binding domain of a bacterial lysin comprising a polypeptide including an amino acid sequence providing specific binding to S. aureus, such as SEQ ID NO:1 (phiNM3 CWT domain). For example, the lysin preferably includes the polypeptide sequence of S. aureus phage phiNM3 lysin (SEQ ID NO:1) (protein accession number YP_908849). The phiNM3 lysin CWT domain (SEQ ID NO:1) corresponding to amino acid residues 158-251 was cloned and expressed. […] FIG. 2A is […] showing the protein of SEQ ID NO:1 in a second column next to a set of marker proteins in a first column. […] Group A streptococci, E. coli and Bacillus cereus were used as controls.
Fluorescent labeling and binding analyses were performed on phiNM3 CWT. S. aureus strain 8325-4 genomic DNA was used to amplify the putative CWT of phiNM3 lysin using primers NM3-FWD […]-3′ (SEQ ID NO:10) and NM3-REV 5′-[…]-3′(SEQ ID NO:11). The resulting amplicon was cloned into the arabinose-inducible expression vector pBAD24. Positive clones containing the insert were confirmed by sequencing. […] The labeled-protein (50 μg) was incubated with bacterial cells for 10 minutes, washed 3× with phosphate-buffered saline (pH 7.4) and observed under fluorescence microscope.

The test system of series [2] is Bacillus cereus. The series is described as above. The conditions noted are these: FITC-labeled protein 50 μg, 10 minutes.
Source text: as §1
(§2) Fluorescent labeling and binding analyses were performed on phiNM3 CWT. S. aureus strain 8325-4 genomic DNA was used to amplify the putative CWT of phiNM3 lysin using primers NM3-FWD […]-3′ (SEQ ID NO:10) and NM3-REV 5′-[…]-3′(SEQ ID NO:11). The resulting amplicon was cloned into the arabinose-inducible expression vector pBAD24. Positive clones containing the insert were confirmed by sequencing. The approximately 10-kDa phiNM3 CWT protein was expressed and the protein was purified in one step by cation-exchange chromatography. The purified protein (1 mg/ml) was incubated with 10 μl of FITC (1 mg/ml) for 1 hour. Excess FITC was removed on a desalting column. The labeled-protein (50 μg) was incubated with bacterial cells for 10 minutes, washed 3× with phosphate-buffered saline (pH 7.4) and observed under fluorescence microscope.

Series [3] relates to E. coli. The description is as above. To be noted: FITC-labeled protein 50 μg, 10 minutes.
Source text: as §1, §2

Series [4] has as its system Group A streptococci. The series is described as above. The conditions noted are these: FITC-labeled protein 50 μg, 10 minutes.
Source text: as §1, §2

For series [5], the system named is S. epidermidis. The description is as above. The conditions noted are these: FITC-labeled protein 50 μg, 10 minutes.
Source text: as §1, §2

Series [6] in a line: Solubility of expressed lysins and chimeras. The conditions noted are these: qualitative. As to the method: In another embodiment, the lysin is a chimeric protein that comprises an endopeptidase domain of the S. aureus Twort lysin upstream of the phiNM3 CWT domain (SEQ ID NO:1). The chimeric polypeptide is preferably sufficiently soluble in phosphate buffered saline (PBS). Preferred levels of solubility in PBS for the chimeric lysins is at least about 1 mg/ml and more preferably at least about 3 mg/mL. in PBS. […] One example of such a lysin is provided in SEQ ID NO:2 (AD127), shown in FIG. 5A and consisting of the Twort lysin endopeptidase domain attached to the phiNM3 CWT domain (SEQ ID NO:1). The isolated polypeptide of SEQ ID NO:2 (AD 127) was constructed by engineering S. epidermidis autolysin amidase and Twort lysin endopeptidase domains upstream of phiNM3 CWT domain, respectively.
Traditionally, Bacillus-specific lysins are expressed at high levels and are soluble in E. coli. Therefore, our first attempt was to engineer a 16-amino acid peptide (4) that is conserved in several S. aureus-specific lysins (Lu J Z, Fujiwara T, Komatsuzawa H, Sugai M, Sakon J. 2006. Cell wall-targeting domain of glycylglycine endopeptidase distinguishes among peptidoglycan cross-bridges. (Lue et al. (2006) J. Biol. Chem. 281(1):549-58) The catalytic domain of the Bacillus-specific lysin PlyB was used to generate chimera AD 103 (FIG. 4) (SEQ ID NO: 13). The chimeras were tested for expression, solubility and activity. Then the entire C-terminal CWT domain of PlyB (6) was replaced by the putative C-terminal domain of S. aureus phage Twort lysin (8) to obtain AD 105 (SEQ ID NO: 14). […] Since the lysostaphin catalytic domain […] (10) in AD 112 was of bacterial origin, we attempted to engineer a phage-derived catalytic domain upstream of the lysostaphin CWT. For this, the endopeptidase domain in Twort lysin (14) was used to construct chimera AD 119 (SEQ ID NO:3).

B1: phiNM3 CWT domain: cell wall targeting domain, amino acid residues 158-251 of S. aureus phage phiNM3 lysin, approximately 10-kDa; tested FITC-labeled (protein)
chain: GKSASKITVGSKAPYNLKWSKGAYFNAKIDGLGATSATRYGDNRTNYRFDVGQAVYAPGTLIYVFEIIDGWCRIYWNNHNEWIWHERLIVKEVF
modifications: FITC label; Staphylococcus aureus phage phiNM3
notes: cell wall targeting domain, amino acid residues 158-251 of S. aureus phage phiNM3 lysin, approximately 10-kDa; tested FITC-labeled
With B1, the “binding to S. aureus cells” value in series [1] is reported as “bound specifically”. The “binding to Bacillus” value in series [2] is listed as “not observed”. Further, the “binding to E. coli” value in series [3] is reported as “not observed”. The binding to streptococci result in series [4] is “not observed”. The “binding to S. epidermidis cells” value in series [5] was “bound specifically”. For the same molecule, in series [6], the “solubility of the expressed protein” value was “highly soluble”.
